In IntAct's records for PubMed 31515488:

B1: Isoform 1 of DNA mismatch repair protein Mlh1 (Homo sapiens), P40692-1 (parent)
chain: MSFVAGVIRRLDETVVNRIAAGEVIQRPANAIKEMIENCLDAKSTSIQVIVKEGGLKLIQIQDNGTGIRKEDLDIVCERFTTSKLQSFEDLASISTYGFRGEALASISHVAHVTITTKTADGKCAYRASYSDGKLKAPPKPCAGNQGTQITVEDLFYNIATRRKALKNPSEEYGKILEVVGRYSVHNAGISFSVKKQGETVADVRTLPNASTVDNIRSIFGNAVSRELIEIGCEDKTLAFKMNGYISNANYSVKKCIFLLFINHRLVESTSLRKAIETVYAAYLPKNTHPFLYLSLEISPQNVDVNVHPTKHEVHFLHEESILERVQQHIESKLLGSNSSRMYFTQTLLPGLAGPSGEMVKSTTSLTSSSTSGSSDKVYAHQMVRTDSREQKLDAFLQPLSKPLSSQPQAIVTEDKTDISSGRARQQDEEMLELPAPAEVAAKNQSLEGDTTKGTSEMSEKRGPTSSNPRKRHREDSDVEMVEDDSRKEMTAACTPRRRIINLTSVLSLQEEINEQGHEVLREMLHNHSFVGCVNPQWALAQHQTKLYLLNTTKLSEELFYQILIYDFANFGVLRLSEPAPLFDLAMLALDSPESGWTEEDGPKEGLAEYIVEFLKKKAEMLADYFSLEIDEEGNLIGLPLLIDNYVPPLEGLPIFILRLATEVNWDEEKECFESLSKECAMFYSIRKQYISEESTLSGQQSEVPGSIPNSWKWTVEHIVYKALRSHILPPKHFTEDGNILQLANLPDLYKVFERC
B2: Glutathione S-transferase Mu 5 (Homo sapiens), P46439 (parent)
chain: MPMTLGYWDIRGLAHAIRLLLEYTDSSYVEKKYTLGDAPDYDRSQWLNEKFKLGLDFPNLPYLIDGAHKITQSNAILRYIARKHNLCGETEEEKIRVDILENQVMDNHMELVRLCYDPDFEKLKPKYLEELPEKLKLYSEFLGKRPWFAGDKITFVDFLAYDVLDMKRIFEPKCLDAFLNLKDFISRFEGLKKISAYMKSSQFLRGLLFGKSATWNSK
B3: Protein BANP (Homo sapiens), Q8N9N5-2 (parent)
chain: MMSEHDLADVVQIAVEDLSPDHPVVLENHVVTDEDEPALKRQRLEINCQDPSIKSFLYSINQTICLRLDSIEAKLQALEATCKSLEEKLDLVTNKQHSPIQVPMVAGSPLGATQTCNKVRCAVPGRRQNTIVVKVPGQEDSHHEDGESGSEASDSVSSCGQAGSQSIGSNVTLITLNSEEDYPNGTWLGDENNPEMRVRCAIIPSDMLHISTNCRTAEKMALTLLDYLFHREVQAVSNLSGQGKHGKKQLDPLTIYGIRCHLFYKFGITESDWYRIKQSIDSKCRTAWRRKQRGQSLAVKSFSRRTPNSSSYCPSEPMMSTPPPASELPQPQPQPQALHYALANAQQVQIHQIGEDGQVQVIPQGHLHIAQVPQGEQVQITQDSEGNLQIHHVGQDGQVLQGAQLIAVASSDPAAAGVDGSPLQGSDIQVQYVQLAPVSDHTAGAQTAEALQPTLQPEMQLEHGAIQIQ
partner: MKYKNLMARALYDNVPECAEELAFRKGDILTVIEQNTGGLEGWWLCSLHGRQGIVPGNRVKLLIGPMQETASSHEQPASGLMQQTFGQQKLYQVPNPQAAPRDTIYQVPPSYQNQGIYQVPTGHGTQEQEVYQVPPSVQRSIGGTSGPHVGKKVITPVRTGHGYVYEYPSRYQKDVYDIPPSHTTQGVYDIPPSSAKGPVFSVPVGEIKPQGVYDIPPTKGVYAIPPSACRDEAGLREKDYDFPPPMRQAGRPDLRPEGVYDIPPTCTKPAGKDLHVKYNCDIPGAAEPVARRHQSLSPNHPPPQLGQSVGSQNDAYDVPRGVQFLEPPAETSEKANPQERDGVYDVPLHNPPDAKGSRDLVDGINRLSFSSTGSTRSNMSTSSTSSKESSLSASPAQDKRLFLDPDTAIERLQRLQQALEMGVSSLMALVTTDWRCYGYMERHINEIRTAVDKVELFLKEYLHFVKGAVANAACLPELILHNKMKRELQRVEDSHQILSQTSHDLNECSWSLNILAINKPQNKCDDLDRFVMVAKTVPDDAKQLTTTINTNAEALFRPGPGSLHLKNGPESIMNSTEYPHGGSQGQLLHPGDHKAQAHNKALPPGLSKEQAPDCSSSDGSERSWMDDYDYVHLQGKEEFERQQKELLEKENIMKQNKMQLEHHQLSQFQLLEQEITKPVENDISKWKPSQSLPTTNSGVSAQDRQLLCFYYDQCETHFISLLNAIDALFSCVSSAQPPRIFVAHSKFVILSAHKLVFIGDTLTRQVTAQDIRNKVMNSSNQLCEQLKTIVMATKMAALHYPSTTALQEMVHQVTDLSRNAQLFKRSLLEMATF
B4: Dolichyl-diphosphooligosaccharide--protein glycosyltransferase subunit 1 (Homo sapiens), P04843 (parent)
chain: MEAPAAGLFLLLLLGTWAPAPGSASSEAPPLINEDVKRTVDLSSHLAKVTAEVVLAHLGGGSTSRATSFLLALEPELEARLAHLGVQVKGEDEEENNLEVRETKIKGKSGRFFTVKLPVALDPGAKISVIVETVYTHVLHPYPTQITQSEKQFVVFEGNHYFYSPYPTKTQTMRVKLASRNVESYTKLGNPTRSEDLLDYGPFRDVPAYSQDTFKVHYENNSPFLTITSMTRVIEVSHWGNIAVEENVDLKHTGAVLKGPFSRYDYQRQPDSGISSIRSFKTILPAAAQDVYYRDEIGNVSTSHLLILDDSVEMEIRPRFPLFGGWKTHYIVGYNLPSYEYLYNLGDQYALKMRFVDHVFDEQVIDSLTVKIILPEGAKNIEIDSPYEISRAPDELHYTYLDTFGRPVIVAYKKNLVEQHIQDIVVHYTFNKVLMLQEPLLVVAAFYILFFTVIIYVRLDFSITKDPAAEARMKVACITEQVLTLVNKRIGLYRHFDETVNRYKQSRDISTLNSGKKSLETEHKALTSEIALLQSRLKTEGSDLCDRVSEMQKLDAQVKELVLKSAVEAERLVAGKLKKDTYIENEKLISGKRQELVTKIDHILDAL
B5: Zinc finger and BTB domain-containing protein 49 (Homo sapiens), Q6ZSB9 (parent)
chain: MDPVATHSCHLLQQLHEQRIQGLLCDCMLVVKGVCFKAHKNVLAAFSQYFRSLFQNSSSQKNDVFHLDVKNVSGIGQILDFMYTSHLDLNQDNIQVMLDTAQCLQVQNVLSLCHTFLKSATVVQPPGMPCNSTLSLQSTLTPDATCVISENYPPHLLQECSADAQQNKTLDESHPHASPSVNRHHSAGEISKQAPDTSDGSCTELPFKQPNYYYKLRNFYSKQYHKHAAGPSQERVVEQPFAFSTSTDLTTVESQPCAVSHSECILESPEHLPSNFLAQPVNDSAPHPESDATCQQPVKQMRLKKAIHLKKLNFLKSQKYAEQVSEPKSDDGLTKRLESASKNTLEKASSQSAEEKESEEVVSCENFNCISETERPEDPAALEDQSQTLQSQRQYACELCGKPFKHPSNLELHKRSHTGEKPFECNICGKHFSQAGNLQTHLRRHSGEKPYICEICGKRFAASGDVQRHIIIHSGEKPHLCDICGRGFSNFSNLKEHKKTHTADKVFTCDECGKSFNMQRKLVKHRIRHTGERPYSCSACGKCFGGSGDLRRHVRTHTGEKPYTCEICNKCFTRSAVLRRHKKMHCKAGDESPDVLEELSQAIETSDLEKSQSSDSFSQDTSVTLMPVSVKLPVHPVENSVAEFDSHSGGSYCKLRSMIQPHGVSDQEKLSLDPGKLAKPQMQQTQPQAYAYSDVDTPAGGEPLQADGMAMIRSSLAALDNHGGDPLGSRASSTTYRNSEGQFFSSMTLWGLAMKTLQNENELDQ

Variants of: B1
Settings: with msh3_human MSH3, P20585

Row | effect of a mutation on the interaction | Variant
1 | with no effect | R69K

Variants of: B1
Settings: with ima1_human KPNA2, P52292

Row | effect of a mutation on the interaction | Variant
2 | with no effect | R69K

Variants of: B1
Settings: with psa1_human PSMA1, P25786

Row | effect of a mutation on the interaction | Variant
3 | with no effect | R69K

Variants of: B1
Settings: with msh3_human MSH3, P20585
Remark: another data set of the same source

Row | effect of a mutation on the interaction | Variant
4 | with no effect | V213M
5 | with no effect | S106N
6 | disrupting interaction strength | V326A

Variants of: B1
Settings: with ima1_human KPNA2, P52292
Remark: another data set of the same source

Row | effect of a mutation on the interaction | Variant
7 | with no effect | V213M
8 | with no effect | S106N
9 | disrupting interaction strength | V326A

Variants of: B1
Settings: with psa1_human PSMA1, P25786
Remark: another data set of the same source

Row | effect of a mutation on the interaction | Variant
10 | with no effect | V213M
11 | with no effect | S106N
12 | disrupting interaction strength | V326A

Variants of: B2
Settings: with amol2_human AMOTL2, Q9Y2J4

Row | effect of a mutation on the interaction | Variant
13 | with no effect | L179P

Variants of: B3
Settings: with casl_human NEDD9, Q14511

Row | effect of a mutation on the interaction | Variant
14 | with no effect | A162V

Variants of: B4
Settings: with ubql1_human UBQLN1, Q9UMX0

Row | effect of a mutation on the interaction | Variant
15 | disrupting interaction strength | F203L

Variants of: B4
Settings: with sgta_human SGTA

Row | effect of a mutation on the interaction | Variant
16 | with no effect | F203L

Variants of: B5
Settings: with gopc_human GOPC

Row | effect of a mutation on the interaction | Variant
17 | with no effect | C294R
18 | with no effect | E346K
19 | with no effect | Y320S

Variants of: B5
Settings: with cep70_human CEP70, Q8NHQ1

Row | effect of a mutation on the interaction | Variant
20 | with no effect | C294R
21 | with no effect | E346K
22 | disrupting interaction strength | Y320S
